Laboratory results: patent US20080213836
Substitutions are numbered along the chain they refer to. Numbers in names are those of the source.

T1: Boc-Glu(OBzl)-Ala-Arg-MCA
T1 chain: EAR

T2: Gly-Asp-Asp-Asp-Asp-Lys-β-naphthylamide
T2 chain: GDDDDK

T3: Z-Phe-Arg-MCA
T3 chain: FR

T4: Pro-Phe-Arg-MCA
T4 chain: PFR

B1: Medaka EP-1 serine protease domain mutant K63A (protein)
chain: VVGGVNAEKGAWPWMVSLHWRGRHGCGASLIGRDWLLTAAHCVYGANTHLQYWSAVLGLHAQSSMNSQEVQIRQVDRIIINKNYNRRTKEADIAMMHLQQPVNFTEWVLPVCLASEDQHFPAGRRCFIAGWGRDAEGGSLPDILQEAEVPLVDQDECQRLLPEYTFTSSMLCAGYPEGGVDSCQGDSGGPLMCLEDARWTLIGVTSFGVGCGRPERPGAYARVSAFTSWIAETRRSSFSDLD
B2: Medaka EP-1 serine protease domain mutant F144A (protein)
chain: B1 chain with A46K, F127A
B3: Medaka EP-1 serine protease domain mutant E173K (protein)
chain: B1 chain with A46K, E156K
B4: Medaka EP-1 serine protease domain mutant T105A (protein)
chain: B1 chain with A46K, T88A
B5: Medaka EP-1 serine protease domain mutant P193A (protein)
chain: B1 chain with A46K, P176A
B6: Medaka EP-1 serine protease domain mutant K63E (protein)
chain: B1 chain with A46E
B7: Medaka EP-1 serine protease domain mutant F144S (protein)
chain: B1 chain with A46K, F127S
B8: Medaka EP-1 serine protease domain mutant T105R (protein)
chain: B1 chain with A46K, T88R

Molecular target: T1, Boc-Glu(OBzl)-Ala-Arg-MCA

Protein	enzyme activity against wild-type
B1	The same held true for all the other mutants except for F144A
B2	hydrolyzed the GD4K-βNA as well as the three MCA-containing substrates at an elevated rate when compared with the wild-type enzyme
B3	consistently resulted in reduced enzyme activity for synthetic peptide substrates
B4	The same held true for all the other mutants except for F144A
B5	The same held true for all the other mutants except for F144A
B6	The same held true for all the other mutants except for F144A
B7	consistently resulted in reduced enzyme activity for synthetic peptide substrates
B8	The same held true for all the other mutants except for F144A

Molecular target: T2, Gly-Asp-Asp-Asp-Asp-Lys-β-naphthylamide

Protein	enzyme activity against wild-type
B1	The same held true for all the other mutants except for F144A
B2	hydrolyzed the GD4K-βNA as well as the three MCA-containing substrates at an elevated rate when compared with the wild-type enzyme
B3	consistently resulted in reduced enzyme activity for synthetic peptide substrates
B4	The same held true for all the other mutants except for F144A
B5	The same held true for all the other mutants except for F144A
B6	The same held true for all the other mutants except for F144A
B7	consistently resulted in reduced enzyme activity for synthetic peptide substrates
B8	The same held true for all the other mutants except for F144A

Molecular target: recombinant fusion protein of Medaka trypsinogen

Protein	conversion of trypsinogen to active enzyme
B1	A total of 12 mutants could convert the recombinant Medaka trypsinogen to its active enzyme (data not shown)
B2	A total of 12 mutants could convert the recombinant Medaka trypsinogen to its active enzyme (data not shown)
B3	A total of 12 mutants could convert the recombinant Medaka trypsinogen to its active enzyme (data not shown)
B4	A total of 12 mutants could convert the recombinant Medaka trypsinogen to its active enzyme (data not shown)
B5	A total of 12 mutants could convert the recombinant Medaka trypsinogen to its active enzyme (data not shown)
B6	A total of 12 mutants could convert the recombinant Medaka trypsinogen to its active enzyme (data not shown)
B7	A total of 12 mutants could convert the recombinant Medaka trypsinogen to its active enzyme (data not shown)
B8	A total of 12 mutants could convert the recombinant Medaka trypsinogen to its active enzyme (data not shown)

Molecular target: T3, Z-Phe-Arg-MCA

Protein	enzyme activity against wild-type
B1	The same held true for all the other mutants except for F144A
B2	hydrolyzed the GD4K-βNA as well as the three MCA-containing substrates at an elevated rate when compared with the wild-type enzyme
B3	consistently resulted in reduced enzyme activity for synthetic peptide substrates
B4	The same held true for all the other mutants except for F144A
B5	The same held true for all the other mutants except for F144A
B6	The same held true for all the other mutants except for F144A
B7	consistently resulted in reduced enzyme activity for synthetic peptide substrates
B8	The same held true for all the other mutants except for F144A

Molecular target: T4, Pro-Phe-Arg-MCA

Protein	enzyme activity against wild-type
B1	The same held true for all the other mutants except for F144A
B2	hydrolyzed the GD4K-βNA as well as the three MCA-containing substrates at an elevated rate when compared with the wild-type enzyme
B3	consistently resulted in reduced enzyme activity for synthetic peptide substrates
B4	The same held true for all the other mutants except for F144A
B5	The same held true for all the other mutants except for F144A
B6	The same held true for all the other mutants except for F144A
B7	consistently resulted in reduced enzyme activity for synthetic peptide substrates
B8	The same held true for all the other mutants except for F144A
